B2: Strep II-ECD (natural protein)
chain: MEETMKLATMEDTVEYCLFLIPDESRDSDKHKEILQKYIERIITRFAPMLVPYIWQNQPFNLKYKPGKGGVPAHMFGVTKFGDNIEDEWFIVYVIKQITKEFPELVARIEDNDGEFLLIEAADFLPKWLDPENSTNRVFFCHGELCIIPAPRKSGAESWLPTTPPTIPQALNIITAHSEKILASESIRAAVNRRIRGYPEKIQASLHRAHCFLPAGIVAVLKQRPRLVAAAVQAFYLRDPIDLRACRVFKTFLPETRIMTSVTFTKCLYAQLVQQRFVPDRRSGYRLPPPSDPQYRAHELGMKLAHGFEILCSKCSPHFSDCKKSLVTASPLWASFLESLKKNDYFKGLIEGSAQYRERLEMAENYFQLSVDWPESSLAMSPGEEILTLLQTIPFDIEDLKKEAANLPPEDDDQWLDLSPDQLDQLLQEAVGKKESESVSKEEKEQNYDLTEVSESMKAFISKVSTHKGAELPREPSEAPITFDADSFLNYFDKILGPRPNESDSDDLDDEDFECLDSDDDLDFETHEPGEEASLKGTLDNLKSYMAQMDQELAHTCISKSFTTRNQVEPVSQTTDNNSDEEDSGTGESVMAPVDVDLNLVSNILESYSSQAGLAGPASNLLQSMGVQLPDNTDHRPTSKPTKN
B3: AAR2-His (natural protein)
chain: MAAVQMDPELAKRLFFEGATVVILNMPKGTEFGIDYNSWEVGPKFRGVKMIPPGIHFLHYSSVDKANPKEVGPRMGFFLSLHQRGLTVLRWSTLREEVDLSPAPESEVEAMRANLQELDQFLGPYPYATLKKWISLTNFISEATVEKLQPENRQICAFSDVLPVLSMKHTKDRVGQNLPRCGIECKSYQEGLARLPEMKPRAGTEIRFSELPTQMFPEGATPAEITKHSMDLSYALETVLNKQFPSSPQDVLGELQFAFVCFLLGNVYEAFEHWKRLLNLLCRSEAAMMKHHTLYINLISILYHQLGEIPADFFVDIVSQDNFLTSTLQVFFSSACSIAVDATLRKKAEKFQAHLTKKFRWDFAAEPEDCAPVVVELPEGIEMG
B4: 6xHis-AAR2-Strep II (natural protein)
chain: MAAVQMDPELAKRLFFEGATVVILNMPKGTEFGIDYNSWEVGPKFRGVKMIPPGIHFLHYSSVDKANPKEVGPRMGFFLSLHQRGLTVLRWSTLREEVDLSPAPESEVEAMRANLQELDQFLGPYPYATLKKWISLTNFISEATVEKLQPENRQICAFSDVLPVLSMKHTKDRVGQNLPRCGIECKSYQEGLARLPEMKPRAGTEIRFSELPTQMFPEGATPAEITKHSMDLSYALETVLNKQFPSSPQDVLGELQFAFVCFLLGNVYEAFEHWKRLLNLLCRSEAAMMKHHTLYINLISILYHQLGEIPADFFVDIVSQDNFLTSTLQVFFSSACSIAVDATLRKKAEKFQAHLTKKFRWDFAAEPEDCAPVVVELPEGIEMG

Legend:
RUVBL2 [1] = molecular target: T1, RUVBL2 (human, UniProt Q9Y230 1-463); assay: pull-down
RUVBL1–RUVBL2 complex = RUVBL1–RUVBL2 complex (human, UniProt Q9Y265;Q9Y230); assay: pull-down
RUVBL1 [2] = molecular target: T2, RUVBL1 (human, UniProt Q9Y265 1-456); assay: pull-down
PRPF8-Flag = PRPF8-Flag (human, UniProt Q6P2Q9 1-2335); assay: pull-down
Strep II-ECD = molecular target: B2; assay: pull-down
[3] = molecular target: His-RUVBL1–RUVBL2 complex (human, UniProt Q9Y265;Q9Y230); assay: pull-down
AAR2-His = molecular target: B3; assay: pull-down
6xHis-AAR2-Strep II = molecular target: B4; assay: pull-down
RUVBL2 [4] = molecular target: T1, RUVBL2; assay: cross-linking
RUVBL1 [5] = molecular target: T2, RUVBL1; assay: cross-linking

Measured: binding result

B1: GST-ZNHIT2-C (domain or fragment)
chain: GPVSPLVRFQLPNVLFAYAHTLALYHGGDDALLSDFCATLLGVSGALGAQQVFASAEEALQAAAHVLEAGEHPPGPLGTRGAMHEVARILLGEGPTNQKGYTLAALGDLAQTLGRARKQAVAREERDHLYRARKKCQFLLAWTNENEAALTPLALDCARAHQAHAVVAEEV
binds: RUVBL2 [1] | RUVBL1–RUVBL2 complex | RUVBL1 [2]

B2
binds: PRPF8-Flag | RUVBL1–RUVBL2 complex

B3
binds: Strep II-ECD

B4
binds: RUVBL1–RUVBL2 complex

B5: GST-ZNHIT2ΔC (domain or fragment)
chain: MEPAGPCGFCPAGEVQPARYTCPRCNAPYCSLRCYRTHGTCAENFYRDQVLGELRGCSAPPSRLASALRRLRQQRETEDEPGEAGLSSGPAPGGLSGLWERLAPGEKAAFERLLSRGEAGRLLPPWRPWWWNRGAGPQLLEELDNAPGSDAAELELAPARTPPDSVKDASAAEPAAAERVLGDVPGACTPVVPTRIPAIVSLSRGPVSPLVRFQLPNVLFAYAHTLALYHGGDDALLSDFCATLLGVSGALGAQQVFASAEEALQAAAHVLEAGEHPPGPLGTRGAMHEVARILLGEGPTNQKGYTLAALGDLAQTLGRARKQAVAREERDHLYRARKKCQFLLAWTNENEAALTPLALDCARAHQAHAVVAEEV
binds: RUVBL2 [1] | Strep II-ECD | RUVBL1–RUVBL2 complex | [3] | RUVBL1 [2]

B6: ZNHIT2ΔC (domain or fragment)
chain: MEPAGPCGFCPAGEVQPARYTCPRCNAPYCSLRCYRTHGTCAENFYRDQVLGELRGCSAPPSRLASALRRLRQQRETEDEPGEAGLSSGPAPGGLSGLWERLAPGEKAAFERLLSRGEAGRLLPPWRPWWWNRGAGPQLLEELDNAPGSDAAELELAPARTPPDSVKDASAAEPAAAERVLGDVPGACTPVVPTRIPAIVSLSRGPVSPLVRFQLPNVLFAYAHTLALYHGGDDALLSDFCATLLGVSGALGAQQVFASAEEALQAAAHVLEAGEHPPGPLGTRGAMHEVARILLGEGPTNQKGYTLAALGDLAQTLGRARKQAVAREERDHLYRARKKCQFLLAWTNENEAALTPLALDCARAHQAHAVVAEEV
binds: Strep II-ECD | AAR2-His | 6xHis-AAR2-Strep II | PRPF8-Flag | RUVBL2 [4] | RUVBL1 [5]
